Experimental data reported in US11278600B2, “Human alpha-galactosidase variants” (Codexis, Inc., priority 2014, dated 2022).

Tests used:
Format in all cases: biochemical
[1] = HTP-analysis of yeast culture supernatants, no challenge (MUGal hydrolysis); conditions: activity of the variant/activity of Rd4BB (SEQ ID NO: 15)
Procedure, shortened: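 GLA variants expressed in yeast INVSc1, secreted into SD-Ura broth over 66-84 h at 30° C; clarified supernatants tested without challenge. Supernatant mixed with McIlvaine buffer pH 4.8 and 2 mM MUGal (citrate/KCl, pH 4.6), 37° C for 30-180 min, carbonate-quenched, fluorescence Ex 355/Em 448 nm.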

[2] = HTP-analysis of supernatants pretreated with acid (MUGal hydrolysis); conditions: activity of the variant/activity of Rd4BB (SEQ ID NO: 15); challenge at pH 3.7
Procedure, shortened: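 Supernatants from INVSc1 yeast secreting GLA variants were challenged at 37° C. for 1-3 h in McIlvaine buffer at pH 3.3-4.3. Residual activity was then measured on 4 mM MUGal substrate stock at pH 4.8 with citrate buffer pH 4.3, over 30-180 min at 37° C. Reactions were quenched with sodium carbonate and read by fluorescence (Ex 355/Em 448 nm).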

[3] = HTP-analysis of supernatants pretreated with base (MUGal hydrolysis); conditions: activity of the variant/activity of Rd4BB (SEQ ID NO: 15); challenge at pH 9.65
Procedure, shortened: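 GLA variants secreted from yeast INVSc1; culture supernatants pre-incubated with McIlvaine buffer pH 7.0–8.2 or 200 mM bicarbonate pH 9.1–9.7 at 37° C. for 1–18 h. Residual activity: MUGal (4 mM stock) hydrolysis at pH 4.3–4.8, 37° C., 30–180 min, carbonate quench; fluorescence Ex 355/Em 448 nm.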

B1: 510 (protein)
chain: LDNGLARTPTMGWLHWERFMCNLDCQEEPDSCISEKLFMEMAERMVSEGWKDAGYEYLCIDDCWMAPQRDSEGRLQADPQRFPHGIRQLANYVHSKGLKLGIYADVGNKTCAGFPGSFGYYDIDAQTFADWGVDLLKFDGCYCDSLENLADGYKHMSLALNRTGRSIVYSCEWPLYMWPFQKPNYTEIRQYCNHWRNFGDIDDSWKSIKSILDWTSFNQERIVDVAGPGGWNDPDMLVIGNFGLSWNQQVTQMALWAIMAAPLFMSNDLRHISPQAKALLQDKDVIAINQDPLGKQGYQLRQGDNFEVWERPLSGLAWAVAMINRQEIGGPRSYTIAVASLGKGVACNPACFITQLLPVKRKLGFYEWTSRLRSHINPTGTVLLQLENTMQRSLKDLL
modifications: Synthetic Polypeptide sequence of Variant No. 510 of mature Human GLA
**Q.** Which results are given for B1?
**A.** Relative Activity of GLA Variants After No Challenge (NC) [1]: + (0.5 to 1.5 relative activity over Rd4BB (SEQ ID NO: 15)); Relative Activity of GLA Variants After Challenge at pH 3.7 [2]: − (<0.5 relative activity over Rd4BB (SEQ ID NO: 15)); Relative Activity of GLA Variants After Challenge at pH 9.65 [3]: + (0.5 to 1.5 relative activity over Rd4BB (SEQ ID NO: 15))

B2: 373 (protein)
chain: LDNGLARTPTMGWLHWERFMCNLDCQEEPDSCISEKLFMERAERMVSEGWKDAGYEYLCIDDCWMAPQRDSEGRLQADPQRFPHGIRQLANYVHSKGLKLGIYADVGNKTCAGFPGSFGYYDIDAQTFADWGVDLLKFDGCYCDSLENLADGYKHMSLALNRTGRSIVYSCEWPLYMWPFQKPNYTEIRQYCNHWRNFADIDDSWKSIKSILDWTSRNQERIVDVAGPGGWNDPDMLVIGNFGLSWDQQVTQMALWAIMAAPLFMSNDLRHISPQAKALLQDKDVIAINQDPLGKQGYQLRKGDNFEVWERPLSGDAWAVAIINRQEIGGPRSYTIPVASLGKGVACNPACFITQLLPVKRQLGFYNWTSRLKSHINPTGTVLLQLENTMQMSLKDLL
modifications: Synthetic Polypeptide sequence of Variant No. 373 of mature Human GLA
**Q.** With B2 as the molecule, how does the “Relative Activity of GLA Variants After No Challenge (NC)” value [1] read?
**A.** The value was “− (<0.5 relative activity over Rd4BB (SEQ ID NO: 15))”.

**Q.** And the “Relative Activity of GLA Variants After Challenge at pH 3.7” value [2]?
**A.** Its value is “− (<0.5 relative activity over Rd4BB (SEQ ID NO: 15))”.

**Q.** What about the “Relative Activity of GLA Variants After Challenge at pH 9.65” value [3] of the same molecule?
**A.** The value was “− (<0.5 relative activity over Rd4BB (SEQ ID NO: 15))”.

B3: 374 (protein)
chain: LDNGLARTPTMGWLHWERFMCNLDCQEEPDSCISEKLFMEMAEMMVSEGWKDAGYEYLCIDDCWMAPQRDSEGRLQADPQRFPHGIRQLANYVHSKGLKLGIYADVGNKTCAGFPGSFGYYDIDAQTFADWGVDLLKFDGCYCDSLENLADGYKHMSLALNRTGRSIVYSCEWPLYMWPFQKPNYTEIRQYCNHWRNFADIDDSWKSIKSILDWTSRNQERIVDVAGPGGWNDPDMLVIGNFGLSWDQQVTQMALWAIMAAPLFMSNDLRHISPQAKALLQDKDVIAINQDPLGKQGYQLRKGDNFEVWERPLSGDAWAVAIINRQEIGGPRSYTIPVASLGKGVACNPACFITQLLPVKRQLGFYNWTSRLKSHINPTGTVLLQLENTMQMSLKDLL
modifications: Synthetic Polypeptide sequence of Variant No. 374 of mature Human GLA
**Q.** Which results are given for B3?
**A.** Relative Activity of GLA Variants After No Challenge (NC) [1]: + (0.5 to 1.5 relative activity over Rd4BB (SEQ ID NO: 15)); Relative Activity of GLA Variants After Challenge at pH 3.7 [2]: + (0.5 to 1.5 relative activity over Rd4BB (SEQ ID NO: 15)); Relative Activity of GLA Variants After Challenge at pH 9.65 [3]: + (0.5 to 1.5 relative activity over Rd4BB (SEQ ID NO: 15))

B4: 377 (protein)
chain: LDNGLARTPTMGWLHWERFMCNLDCQEEPDSCISEKLFTEMAERMVSEGWKDAGYEYLCIDDCWMAPQRDSEGRLQADPQRFPHGIRQLANYVHSKGLKLGIYADVGNKTCAGFPGSFGYYDIDAQTFADWGVDLLKFDGCYCDSLENLADGYKHMSLALNRTGRSIVYSCEWPLYMWPFQKPNYTEIRQYCNHWRNFADIDDSWKSIKSILDWTSRNQERIVDVAGPGGWNDPDMLVIGNFGLSWDQQVTQMALWAIMAAPLFMSNDLRHISPQAKALLQDKDVIAINQDPLGKQGYQLRKGDNFEVWERPLSGDAWAVAIINRQEIGGPRSYTIPVASLGKGVACNPACFITQLLPVKRQLGFYNWTSRLKSHINPTGTVLLQLENTMQMSLKDLL
modifications: Synthetic Polypeptide sequence of Variant No. 377 of mature Human GLA
**Q.** What does the source list for B4?
**A.** Relative Activity of GLA Variants After No Challenge (NC) [1]: + (0.5 to 1.5 relative activity over Rd4BB (SEQ ID NO: 15)); Relative Activity of GLA Variants After Challenge at pH 3.7 [2]: ++ (>1.5 to 2.5 relative activity over Rd4BB (SEQ ID NO: 15)); Relative Activity of GLA Variants After Challenge at pH 9.65 [3]: − (<0.5 relative activity over Rd4BB (SEQ ID NO: 15))

B5: 376 (protein)
chain: LDNGLARTPTMGWLHWERFMCNLDCQEEPDSCISEKLFMEPAERMVSEGWKDAGYEYLCIDDCWMAPQRDSEGRLQADPQRFPHGIRQLANYVHSKGLKLGIYADVGNKTCAGFPGSFGYYDIDAQTFADWGVDLLKFDGCYCDSLENLADGYKHMSLALNRTGRSIVYSCEWPLYMWPFQKPNYTEIRQYCNHWRNFADIDDSWKSIKSILDWTSRNQERIVDVAGPGGWNDPDMLVIGNFGLSWDQQVTQMALWAIMAAPLFMSNDLRHISPQAKALLQDKDVIAINQDPLGKQGYQLRKGDNFEVWERPLSGDAWAVAIINRQEIGGPRSYTIPVASLGKGVACNPACFITQLLPVKRQLGFYNWTSRLKSHINPTGTVLLQLENTMQMSLKDLL
modifications: Synthetic Polypeptide sequence of Variant No. 376 of mature Human GLA
**Q.** For B5, which “Relative Activity of GLA Variants After No Challenge (NC)” value [1] is on record?
**A.** Its value is “− (<0.5 relative activity over Rd4BB (SEQ ID NO: 15))”.

**Q.** And the “Relative Activity of GLA Variants After Challenge at pH 3.7” value [2]?
**A.** Its value is “− (<0.5 relative activity over Rd4BB (SEQ ID NO: 15))”.

**Q.** What about the “Relative Activity of GLA Variants After Challenge at pH 9.65” value [3] of the same molecule?
**A.** The value was “− (<0.5 relative activity over Rd4BB (SEQ ID NO: 15))”.

B6: 375 (protein)
chain: LDNGLARTPTMGWLHWERFMCNLDCQEEPDSCISEKLFMEMAERMVIEGWKDAGYEYLCIDDCWMAPQRDSEGRLQADPQRFPHGIRQLANYVHSKGLKLGIYADVGNKTCAGFPGSFGYYDIDAQTFADWGVDLLKFDGCYCDSLENLADGYKHMSLALNRTGRSIVYSCEWPLYMWPFQKPNYTEIRQYCNHWRNFADIDDSWKSIKSILDWTSRNQERIVDVAGPGGWNDPDMLVIGNFGLSWDQQVTQMALWAIMAAPLFMSNDLRHISPQAKALLQDKDVIAINQDPLGKQGYQLRKGDNFEVWERPLSGDAWAVAIINRQEIGGPRSYTIPVASLGKGVACNPACFITQLLPVKRQLGFYNWTSRLKSHINPTGTVLLQLENTMQMSLKDLL
modifications: Synthetic Polypeptide sequence of Variant No. 375 of mature Human GLA
**Q.** Which results are given for B6?
**A.** Relative Activity of GLA Variants After No Challenge (NC) [1]: + (0.5 to 1.5 relative activity over Rd4BB (SEQ ID NO: 15)); Relative Activity of GLA Variants After Challenge at pH 3.7 [2]: + (0.5 to 1.5 relative activity over Rd4BB (SEQ ID NO: 15)); Relative Activity of GLA Variants After Challenge at pH 9.65 [3]: + (0.5 to 1.5 relative activity over Rd4BB (SEQ ID NO: 15))
